In US20150246949A1, “Desmoglein 2 (DSG2) Binding Proteins and Uses Therefor” (UNIVERSITY OF WASHINGTON THROUGH ITS CENTER FOR …, priority 2012, published 2015):

Tests used:
[1] = molecular target: human DSG2 on cells (HeLa cells; polarized T84 cells) (human) (UniProt Q14126); assay: cell-based or functional assay
[2] = molecular target: human DSG2 on cells (HeLa cells; polarized T84 cells) (human) (UniProt Q14126); assay: attachment of 3H-labelled Ad3 virus (competitor) to HeLa cells pre-incubated with the dimeric knob
[3] = molecular target: T1, DSG2 (Homo sapiens, UniProt Q14126); assay: Surface plasmon resonance of non-dimerized Ad3 fiber knobs on immobilized DSG2; type: binding; settings: knobs without dimerization domain
T1 construct: purchased Leinco Technologies, Inc. (St. Louis, Mo.)
T1 sequence (Q14126 50-609 limits assumed): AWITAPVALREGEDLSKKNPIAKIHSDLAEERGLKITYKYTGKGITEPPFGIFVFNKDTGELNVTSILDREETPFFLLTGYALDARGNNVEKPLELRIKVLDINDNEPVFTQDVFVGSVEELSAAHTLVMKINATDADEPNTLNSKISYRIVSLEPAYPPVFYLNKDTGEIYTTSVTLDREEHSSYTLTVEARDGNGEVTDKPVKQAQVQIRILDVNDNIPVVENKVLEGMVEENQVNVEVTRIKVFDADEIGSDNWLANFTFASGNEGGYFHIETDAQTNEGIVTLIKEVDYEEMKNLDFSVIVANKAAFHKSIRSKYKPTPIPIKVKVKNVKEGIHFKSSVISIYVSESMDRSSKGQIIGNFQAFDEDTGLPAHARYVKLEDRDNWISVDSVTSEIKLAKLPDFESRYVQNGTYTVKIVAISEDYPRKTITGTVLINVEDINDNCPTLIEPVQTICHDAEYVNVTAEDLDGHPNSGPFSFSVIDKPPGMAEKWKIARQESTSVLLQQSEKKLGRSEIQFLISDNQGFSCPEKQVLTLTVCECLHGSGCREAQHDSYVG
Method: FIG. 7. SPR analysis of non-dimerized Ad3 fiber knob interactions with DSG2. A) DSG2 was immobilized on sensorchips, and background was automatically subtracted from the control flow cell. The Ad3 fiber knobs (w/o dimerization domain: “noDD”) were injected for 3 minutes at 2.5 μg/ml followed by a 2.5 minutes dissociation period. B) Summary of SPR data. […] The extracted data are resumed in the table. Wt=Ad3 fiber knob without mutations
Acquisitions were done on a BIAcore 3000 instrument. HBS-N (GE-Healthcare, Pittsburgh, Pa.) supplemented with 2 mM CaCl2 was used as running buffer in all experiments at a flow rate of 5 μl/min Immobilization on CM4 sensorchip (BIAcore) was performed using DSG2 at 10 μg/ml diluted in 10 mM Acetate buffer pH 4.5 injected for 10 minutes on ethyl(dimethylaminopropyl) carbodiimide (EDC)/N-Hydroxysuccinimide (NHS) activated flow-cell. A control flow-cell was activated by (EDC/NHS) and inactivated by ethanolamine Different concentrations of Ad3 fiber knob proteins were injected for 3 minutes association followed by 2.5 minutes dissociation time, and the signal was automatically subtracted from the background of the ethanolamine deactivated EDC-NHS flow cell. Kinetic and affinity constants were calculated using the BIAeval software.

[4] = molecular target: T2, soluble recombinant DSG2 (Homo sapiens, UniProt Q14126); assay: Western blot of dimeric Ad3 fiber knob mutants probed with soluble DSG2; type: binding; settings: purified dimerized knob mutants
T2 construct: purchased Leinco Technologies, Inc. (St. Louis, Mo.)
T2 sequence (Q14126 50-609 limits assumed): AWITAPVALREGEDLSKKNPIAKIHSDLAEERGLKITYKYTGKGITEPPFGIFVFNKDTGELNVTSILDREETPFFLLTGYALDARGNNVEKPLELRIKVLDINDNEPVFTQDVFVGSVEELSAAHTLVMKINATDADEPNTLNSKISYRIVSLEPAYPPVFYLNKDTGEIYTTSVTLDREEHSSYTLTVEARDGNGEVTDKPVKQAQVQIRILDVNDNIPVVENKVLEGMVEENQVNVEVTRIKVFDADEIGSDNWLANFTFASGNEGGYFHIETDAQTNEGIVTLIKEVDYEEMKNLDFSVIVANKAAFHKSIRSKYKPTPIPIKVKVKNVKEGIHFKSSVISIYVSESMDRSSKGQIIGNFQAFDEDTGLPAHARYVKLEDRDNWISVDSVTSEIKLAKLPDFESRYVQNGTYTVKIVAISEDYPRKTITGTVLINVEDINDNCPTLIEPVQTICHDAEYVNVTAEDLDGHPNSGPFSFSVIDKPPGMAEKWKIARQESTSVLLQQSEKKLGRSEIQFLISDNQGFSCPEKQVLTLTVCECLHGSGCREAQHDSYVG
Excerpt: FIG. 1. Residues found to be critically involved in binding to DSG2. A) Shown are the amino acid sequences of the Ad3 and Ad14p1 fiber knob. Beta sheets present in the Ad3 knob (PDB accession number 1H7Z_A) and Ad14 knob (PDB: 3F0Y_A) are indicated by lines. Black arrows indicate residues within the Ad3 fiber knob which, when mutated individually, ablate or reduce binding to DSG2. […] B) Schematic structure of dimeric Ad3 fiber knob mutants. The fiber knob domain and one shaft motif was fused through a flexible linker to a homodimerizing K-coil domain (41). The proteins are self-dimerizing and can be purified by His-Ni-NTA affinity chromatography. C-F) Analysis of binding of dimeric Ad3 fiber knob mutants to soluble DSG2. C and D) Coomassie staining. 10 μg of purified Ad3 fiber knob (unboiled) were loaded per lane. Trimeric forms of the fiber knobs are indicated by an arrow. The gel contained SDS and the loading buffer containing DTT, which caused the disassembly of dimers of trimeric fiber knobs as previously reported (41). E and F): Western blot using soluble recombinant DSG2 as a probe, followed by anti-DSG2-mAb and anti-mouse IgG-HRP. For comparison, JO-1 (0.5 μg/lane) is shown. The Western blots were scanned and signals were quantified.
Mini-PROTEAN precast gels (BIO-RAD, Hercules, Calif.) with 4-15% gradient polyacrylamide were used. A total of […] protein mixed with 2× loading buffer (10 mM Tris-HCl, pH6.8, 200 mM DTT, 4% SDS, 20% glycerol, 0.2% bromophenol blue) was loaded per lane. Samples were either boiled (B) for 5 min or loaded unboiled (UB). The following running buffer was used: 25 mM Tris, pH8.3, 0.192 M glycine, 0.1% SDS. After electrophoresis, proteins were transferred to nitrocellulose and incubated with recombinant human DSG2 protein and anti-DSG2 antibodies as described previously (42). The Western blots were scanned and quantified using the ImageJ 1.32 software (National Institutes of Health, Bethesda, Md.). JO-1 band intensity was set as 100%. […]

[5] = system: Ad3-GFP virus; assay: Competition of Ad3-GFP virus infection on HeLa cells; type: cell-based, adenovirus serotype 3 (Ad3); settings: HeLa cells; concentrations up to 200 ug/ml
Method: (§1) FIG. 3. Competition of Ad3 virus by dimerized Ad3 knob mutants. A) Relative attachment of ^3H-labeled Ad3 virus in the presence of dimeric fiber knob mutants. 1.8×10^5 HeLa cells were incubated with Ad3 knob mutants at a concentration of 2.5 and 100 μg/ml on ice for 1 hour. Then 400 pfu/cell of ^3H-Ad3 virus was added on ice for another hour. Unbound virus particles were washed away. Attachment of virus particles incubated with PBS was taken as 100%. N=3. B) Competition of Ad3-GFP virus infection on HeLa cells. 1.5×10^5 HeLa cells were seeded into 24 well plates. Cells were incubated with the Ad3 knob mutants at increasing concentrations for one hour at room temperature. 100 pfu/cell of Ad3-GFP virus were then added and GFP expression was analyzed 18 hours later by flow cytometry. Left panel: percentage of GFP positive cells. Right panel: mean fluorescence intensity. N=3. The standard deviation was less than 10%. C) Relative attachment of ^3H-labeled Ad3 virus in the presence of dimeric fiber knob mutants with multiple mutations. The study was performed as described in B) The standard deviation was less than 10%. D) Competition of Ad3-GFP virus infection on HeLa cells. The study was performed as described in C) The standard deviation was less than 10%.
FIG. 9. Analysis of dimeric Ad3 fiber knob mutants with increased affinity to DSG2. A) Competition of Ad3-GFP virus infection on HeLa cells with dimeric affinity-enhanced mutant Y250F and JO-1 (dimeric wt Ad3 fiber knob). The experimental setting is as described for FIG. 3C. left panel: percentage of GFP positive cells. Right panel: mean fluorescence intensity. N=3. The standard deviation was less than 10%. […] 100 pfu/cell of Ad3GFP virus were then added and GFP expression was analyzed 18 hours later. […]
Competition studies were performed on HeLa cells, which express DSG2 (42). […] Transduction was measured based on GFP expression (FIG. 3B). […] Dimeric Ad3 knob mutants with combined mutations were also analyzed for their ability to compete with Ad3 virus for attachment (FIG. 3C) and infection (FIG. 3D).

[6] = system: 3H-labeled Ad3 virus; assay: Competition of 3H-labeled Ad3 virus attachment to HeLa cells; type: cell-based, adenovirus serotype 3 (Ad3)
Method: as §1, with “The study was performed as described in B) The standard deviation was less than 10%. D) Competition of Ad3-GFP virus infection on HeLa cells. The study was performed as described in C) The standard deviation was less than 10%.” left out
HeLa cells were detached from culture dishes by incubation with Versene and washed with PBS. […] After the last wash, the supernatant was removed and the cell-associated radioactivity was determined by a scintillation counter. The number of VP bound per cell was calculated by using the virion specific radioactivity and the number of cells.

dimeric Ad3 fiber knob mutant N186D, D261N, L296R (designed binder)
Inhibition of infection in the presence of dimeric knob (JO-1 = 100%) [1]: 0%
Inhibition of attachment in the presence of dimeric knob (JO-1 = 100%) [2]: 18.5%

B1: N293S/noDD (protein)
chain: NKLCSKLGNGLTFDSSNSIALKNNTLWTGPKPEANCIIEYGKQNPDSKLTLILVKNGGIVNGYVTLMGASDYVNTLFKNKNVSINVELYFDATGHILPDSSSLKTDLELKYKQTADFSARGFMPSTTAYPFVLPNAGTHNENYIFGQCYYKASDGALFPLEVTVMLNKRLPDSRTSYVMTFLWSLSAGLAPETTQATLITSPFTFSYIREDD
modifications: left off: small tags and cut ends
Association rate to DSG2 [3]: association rate was lowest

B2: wt Ad3 knob: wild-type trimeric Ad3 fiber knob without the dimerization domain (protein)
chain: NKLCSKLGNGLTFDSSNSIALKNNTLWTGPKPEANCIIEYGKQNPDSKLTLILVKNGGIVNGYVTLMGASDYVNTLFKNKNVSINVELYFDATGHILPDSSSLKTDLELKYKQTADFSARGFMPSTTAYPFVLPNAGTHNENYIFGQCYYKASDGALFPLEVTVMLNKRLPDSRTSYVMTFLWSLNAGLAPETTQATLITSPFTFSYIREDD
modifications: left off: small tags and cut ends
notes: wild-type trimeric Ad3 fiber knob without the dimerization domain
Association rate to DSG2 [3]: slow association rate

B3: N186D, D261N, L296R: dimeric Ad3 fiber knob with combination of all three N186D, D261N, and L296R (protein)
chain: MKVSALKEKVSALKEKVSALKEKVSALKEKVSALKEGSGGGSGGGSGGGSNSIALKNNTLWTGPKPEANCIIEYGKQNPDSKLTLILVKNGGIVNGYVTLMGASDYVNTLFKDKNVSINVELYFDATGHILPDSSSLKTDLELKYKQTADFSARGFMPSTTAYPFVLPNAGTHNENYIFGQCYYKASNGALFPLEVTVMLNKRLPDSRTSYVMTFLWSLNAGRAPETTQATLITSPFTFSYIREDD
DSG2 binding in Western blot compared to JO-1 [4]: highest level of ablation
Block of Ad3 infection [5]: did not block
Inhibition of attachment in the presence of dimeric knob (JO-1 = 100%) ([6]; Ad3 virus attachment to HeLa cells, N = 3): 18.5%
Block of Ad3 binding ([6]; HeLa cells, concentrations up to 200 ug/ml): did not block
